This is an account of results in CN116173202A (BEIJING DONGFANG BIOTECH CO LTD, dated 2023).

Changes are numbered by the printed parent chain. Where two headings read alike, the source gives them in different places.

Holding throughout (assay): cell-based or functional assay
In experiment [1] the target is T1, 人单核细胞白血病细胞(THP-1)表面LILRB4 (human, UniProt Q8NHJ6 22-448).
For experiment [2], the target named is T1, 人单核细胞白血病细胞(THP-1)表面LILRB4. This is another data set of the same source.
The target in experiment [3] is T1, 人单核细胞白血病细胞(THP-1)表面LILRB4. This is another data set of the same source.

B1: 人源化抗体HA-Ⅱ (human IgG1 / human Ck) (antibody, V domains shown)
VH: EVQLVESGGGLVKPGGSLRLSCAASGFTFSSYTMSWVRQAPGKGLEWVATISSGGTYTYYPDSVKGRFTISRDNAKNSLYLQMNSLRAEDTAVYYCARDGYDGFDYWGQGTTVTVSS
VL: DIVMTQTPLSLSVTPGQPASISCRSSQSLAHSNGNTYLHWYLQKPGQSPQLLIYKVSNRFSGVPDRFSGSGSGTDFTLKISRVEAEDVGVYFCSQSTHVPTFGGGTKVEIKR
Consider B1, for which the “IC50, 生物学活性检测(报告基因), THP-1-NF-κB-Luc cells with ApoE” value (“IC50, 生物学活性检测(报告基因)” for short) in experiment [1] came to 2.68 µg/mL. Also, in experiment [2], the “IC50, 抑制THP-1分泌ARG1 (arginase activity in supernatant, ApoE 0.5μg/mL)” value (from here on “IC50, 抑制THP-1分泌ARG1”) is 250 µg/mL.

B2: 人源化抗体HA-Ⅲ (human IgG1 / human Ck) (antibody, V domains shown)
VH: B1 VH with A97T
VL: B1 VL with Q50K
For the molecule B2, the “IC50, 生物学活性检测(报告基因)” value in experiment [1] came out at 3.44 µg/mL. Besides, the “IC50, 抑制THP-1分泌ARG1” value in experiment [2] is 98.5 µg/mL.

B3: 人源化抗体HA-Ⅰ (human IgG1 / human Ck) (antibody, V domains shown)
VH: B1 VH with A49S
VL: B1 VL with F92Y
Turning to B3, the “IC50, 生物学活性检测(报告基因)” value in experiment [1] was 0.756 µg/mL. In experiment [2], the “IC50, 抑制THP-1分泌ARG1” value is 31.2 µg/mL.

B4: MA-Ⅰ 鼠源抗LILRB4单克隆抗体 (mouse IgG1 / mouse Ck) (antibody)
heavy: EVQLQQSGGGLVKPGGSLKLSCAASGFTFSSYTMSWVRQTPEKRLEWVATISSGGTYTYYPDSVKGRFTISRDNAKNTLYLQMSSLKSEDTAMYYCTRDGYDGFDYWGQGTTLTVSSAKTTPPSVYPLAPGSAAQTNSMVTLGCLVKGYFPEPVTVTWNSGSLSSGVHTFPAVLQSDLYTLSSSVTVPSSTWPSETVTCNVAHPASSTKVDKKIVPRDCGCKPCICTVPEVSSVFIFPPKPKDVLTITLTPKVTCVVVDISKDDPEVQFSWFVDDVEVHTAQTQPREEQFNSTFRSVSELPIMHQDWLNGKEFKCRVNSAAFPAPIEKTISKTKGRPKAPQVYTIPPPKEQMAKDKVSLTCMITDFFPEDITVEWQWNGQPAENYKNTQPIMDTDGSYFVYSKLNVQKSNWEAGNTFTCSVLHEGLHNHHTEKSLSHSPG
light: DIVMTQTTLSLPVSPGDQASISCRSSQSLAHSNGNTYLHWYLQKPGQSPKLLIYKVSNRFSGVPDRFSGSGSGTDFTLKISRVEAEDLGVYFCSQSTLVPTFGGGTKLEIKADAAPTVSIFPPSSEQLTSGGASVVCFLNNFYPKDINVKWKIDGSERQNGVLNSWTDQDSKDSTYSMSSTLTLTKDEYERHNSYTCEATHKTSTSPIVKSFNRNEC
For the molecule B4, the “IC50, 抑制THP-1分泌ARG1” value in experiment [3] was 23.9 µg/mL.

B5: MB-Ⅰ 鼠源抗LILRB4单克隆抗体 (mouse IgG1 / mouse Ck) (antibody)
heavy: QVQLQESGAELVKPGASVKLSCKASGYTFTNYWMHWVKQRPGQGLEWIGEINPSNGRTNYNEKFKTKATLTVDKSSSTAYMQLSSLTSEDSAVYYCARWGQLGLREGYYAVDYWGQGTSVTVSSAKTTPPSVYPLAPGSAAQTNSMVTLGCLVKGYFPEPVTVTWNSGSLSSGVHTFPAVLQSDLYTLSSSVTVPSSTWPSETVTCNVAHPASSTKVDKKIVPRDCGCKPCICTVPEVSSVFIFPPKPKDVLTITLTPKVTCVVVDISKDDPEVQFSWFVDDVEVHTAQTQPREEQFNSTFRSVSELPIMHQDWLNGKEFKCRVNSAAFPAPIEKTISKTKGRPKAPQVYTIPPPKEQMAKDKVSLTCMITDFFPEDITVEWQWNGQPAENYKNTQPIMDTDGSYFVYSKLNVQKSNWEAGNTFTCSVLHEGLHNHHTEKSLSHSPG
light: DIVMTQSPSSLSASLGDRVTISCRASQDISNYLNWYQQKPDGTVKLLIYYTSRLHSGVPSRFSGSGSGTDYSLTISNLEQEDIATYFCQQGNTLPPTFGGGTKLEIKADAAPTVSIFPPSSEQLTSGGASVVCFLNNFYPKDINVKWKIDGSERQNGVLNSWTDQDSKDSTYSMSSTLTLTKDEYERHNSYTCEATHKTSTSPIVKSFNRNEC
As to B5, the “IC50, 抑制THP-1分泌ARG1” value in experiment [3] came out at 46 µg/mL.
